Where “and” joins values, the source holds several entries; their conditions need not be identical. Equal entries are not always repeated.
What was measured:
[1] = biological target: rKgp: mature recombinant Kgp catalytic domain with the ABM1 motif (Gly681-Ala710) deleted (Porphyromonas gingivalis W50)
[2] = biological target: rKgp: mature recombinant Kgp catalytic domain with the ABM1 motif (Gly681-Ala710) deleted (Porphyromonas gingivalis W50); assay: enzyme inhibition kinetics
SEC = biological target: the molecule itself; assay: SEC

Molecule: iodoacetylated Kgp propeptide monomer (from UniProt Q51817 20-228) (domain or fragment)
- inhibition of rKgp by the iodoacetylated monomer (100 mg/L), substrate DQ-BSA [1]: 28 % inhibition

Molecule: recombinant Kgp propeptide (thrombin-cleaved; used as DTT-stabilised monomer in the inhibition assays) (from UniProt Q51817 20-228) (domain or fragment)
- Ki [2]: 2.01 µM and 2.04 µM

B1: recombinant Kgp propeptide (thrombin-cleaved; used as DTT-stabilised monomer in the inhibition assays) (domain or fragment)
chain: QSAKIKLDAPTTRTTCTNNSFKQFDASFSFNEVELTKVETKGGTFASVSIPGAFPTGEVGSPEVPAVRKLIAVPVGATPVVRVKSFTEQVYSLNQYGSEKLMPHQPSMSKSDDPEKVPFVYNAAAYARKGFVGQELTQVEMLGTMRGVRIAALTINPVQYDVVANQLKVRNNIEIEVSFQGADEVATQRLYDASFSPYFETAYKQLFNR
- stoichiometry N (SEC): 2
